{"source": "IntAct's records for PubMed 15173383", "parents": {"B1": {"name": "DNA polymerase delta small subunit (Saccharomyces cerevisiae), P46957 (parent)", "chain": "MDALLTKFNEDRSLQDENLSQPRTRVRIVDDNLYNKSNPFQLCYKKRDYGSQYYHIYQYRLKTFRERVLKECDKRWDAGFTLNGQLVLKKDKVLDIQGNQPCWCVGSIYCEMKYKPNVLDEVINDTYGAPDLTKSYTDKEGGSDEIMLEDESGRVLLVGDFIRSTPFITGVVVGILGMEAEAGTFQVLDICYPTPLPQNPFPAPIATCPTRGKIALVSGLNLNNTSPDRLLRLEILREFLMGRINNKIDDISLIGRLLICGNSVDFDIKSVNKDELMISLTEFSKFLHNILPSISVDIMPGTNDPSDKSLPQQPFHKSLFDKSLESYFNGSNKEILNLVTNPYEFSYNGVDVLAVSGKNINDICKYVIPSNDNGESENKVEEGESNDFKDDIEHRLDLMECTMKWQNIAPTAPDTLWCYPYTDKDPFVLDKWPHVYIVANQPYFGTRVVEIGGKNIKIISVPEFSSTGMIILLDLETLEAETVKIDI", "partner": "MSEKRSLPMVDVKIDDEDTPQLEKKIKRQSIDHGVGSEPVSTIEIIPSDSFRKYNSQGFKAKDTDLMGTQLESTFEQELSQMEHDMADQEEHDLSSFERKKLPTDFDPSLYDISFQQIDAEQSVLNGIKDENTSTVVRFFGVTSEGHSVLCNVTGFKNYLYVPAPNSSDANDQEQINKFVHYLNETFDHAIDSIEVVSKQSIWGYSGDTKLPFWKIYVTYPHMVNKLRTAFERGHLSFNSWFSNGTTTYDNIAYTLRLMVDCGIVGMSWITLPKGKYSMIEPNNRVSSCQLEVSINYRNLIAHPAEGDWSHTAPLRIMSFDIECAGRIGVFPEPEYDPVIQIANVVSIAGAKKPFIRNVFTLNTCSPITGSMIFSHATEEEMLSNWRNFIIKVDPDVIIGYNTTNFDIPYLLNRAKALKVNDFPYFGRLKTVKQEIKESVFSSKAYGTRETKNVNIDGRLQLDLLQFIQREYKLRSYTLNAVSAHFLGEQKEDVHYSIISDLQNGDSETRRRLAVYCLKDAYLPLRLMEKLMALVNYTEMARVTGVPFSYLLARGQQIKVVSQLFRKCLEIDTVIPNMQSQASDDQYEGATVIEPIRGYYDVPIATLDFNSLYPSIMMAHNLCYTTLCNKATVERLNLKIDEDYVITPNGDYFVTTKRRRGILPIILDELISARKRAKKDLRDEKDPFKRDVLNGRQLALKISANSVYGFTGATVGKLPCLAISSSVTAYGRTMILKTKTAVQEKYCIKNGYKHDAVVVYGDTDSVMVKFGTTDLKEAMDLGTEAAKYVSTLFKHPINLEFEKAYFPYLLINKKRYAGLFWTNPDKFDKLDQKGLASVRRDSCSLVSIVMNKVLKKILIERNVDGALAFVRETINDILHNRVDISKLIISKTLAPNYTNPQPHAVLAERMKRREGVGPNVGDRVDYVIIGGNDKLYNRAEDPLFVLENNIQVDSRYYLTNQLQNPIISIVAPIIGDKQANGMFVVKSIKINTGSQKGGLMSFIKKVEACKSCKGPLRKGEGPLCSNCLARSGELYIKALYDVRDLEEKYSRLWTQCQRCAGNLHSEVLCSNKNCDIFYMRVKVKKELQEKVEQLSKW"}, "B2": {"name": "DNA polymerase delta catalytic subunit (Schizosaccharomyces pombe (strain ATCC 38366 / 972)), P30316 (parent)", "chain": "MTDRSSNEGVVLNKENYPFPRRNGSIHGEITDVKRRRLSERNGYGDKKGSSSKEKTSSFEDELAEYASQLDQDEIKSSKDQQWQRPALPAINPEKDDIYFQQIDSEEFTEGSVPSIRLFGVTDNGNSILVHVVGFLPYFYVKAPVGFRPEMLERFTQDLDATCNGGVIDHCIIEMKENLYGFQGNEKSPFIKIFTTNPRILSRARNVFERGEFNFEELFPVGVGVTTFESNTQYLLRFMIDCDVVGMNWIHLPASKYQFRYQNRVSNCQIEAWINYKDLISLPAEGQWSKMAPLRIMSFDIECAGRKGVFPDPSIDPVIQIASIVTQYGDSTPFVRNVFCVDTCSQIVGTQVYEFQNQAEMLSSWSKFVRDVDPDVLIGYNICNFDIPYLLDRAKSLRIHNFPLLGRIHNFFSVAKETTFSSKAYGTRESKTTSIPGRLQLDMLQVMQRDFKLRSYSLNAVCSQFLGEQKEDVHYSIITDLQNGTADSRRRLAIYCLKDAYLPQRLMDKLMCFVNYTEMARVTGVPFNFLLARGQQIKVISQLFRKALQHDLVVPNIRVNGTDEQYEGATVIEPIKGYYDTPIATLDFSSLYPSIMQAHNLCYTTLLDSNTAELLKLKQDVDYSVTPNGDYFVKPHVRKGLLPIILADLLNARKKAKADLKKETDPFKKAVLDGRQLALKVSANSVYGFTGATNGRLPCLAISSSVTSYGRQMIEKTKDVVEKRYRIENGYSHDAVVIYGDTDSVMVKFGVKTLPEAMKLGEEAANYVSDQFPNPIKLEFEKVYFPYLLISKKRYAGLFWTRTDTYDKMDSKGIETVRRDNCPLVSYVIDTALRKMLIDQDVEGAQLFTKKVISDLLQNKIDMSQLVITKALSKTDYAAKMAHVELAERMRKRDAGSAPAIGDRVAYVIIKGAQGDQFYMRSEDPIYVLENNIPIDAKYYLENQLSKPLLRIFEPILGEKASSLLHGDHTRTISMAAPSVGGIMKFAVKVETCLGCKAPIKKGKTALCENCLNRSAELYQRQVAQVNDLEVRFARLWTQCQRCQGSMHQDVICTSRDCPIFYMRIAEHKKLQQSVDLLKRFDEMSW", "partner": "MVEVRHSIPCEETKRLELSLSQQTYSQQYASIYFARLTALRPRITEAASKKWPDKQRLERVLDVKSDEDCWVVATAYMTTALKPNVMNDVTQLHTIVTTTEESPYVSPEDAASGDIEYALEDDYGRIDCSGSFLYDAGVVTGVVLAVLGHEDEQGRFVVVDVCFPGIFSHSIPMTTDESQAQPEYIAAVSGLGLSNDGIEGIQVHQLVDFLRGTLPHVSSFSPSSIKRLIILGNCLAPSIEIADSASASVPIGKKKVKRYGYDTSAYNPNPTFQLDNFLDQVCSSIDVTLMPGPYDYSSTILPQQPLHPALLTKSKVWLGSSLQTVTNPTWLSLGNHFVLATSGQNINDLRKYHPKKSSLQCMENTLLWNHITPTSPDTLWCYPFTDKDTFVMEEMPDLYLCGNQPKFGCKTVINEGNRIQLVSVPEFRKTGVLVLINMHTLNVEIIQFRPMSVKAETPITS"}, "B3": {"name": "DNA polymerase delta catalytic subunit (Saccharomyces cerevisiae), P15436 (parent)", "chain": "B1 partner", "partner": "B1 chain"}}, "data": [{"variants_of": "B1", "details": "with dpod_yeast POL3, P15436", "values": [{"variant": "K358E", "effect of a mutation on the interaction": "increasing interaction"}]}, {"variants_of": "B2", "details": "with dpod2_schpo cdc1, P87324", "values": [{"variant": "C1053A", "effect of a mutation on the interaction": "decreasing interaction"}, {"variant": "C1043A", "effect of a mutation on the interaction": "decreasing interaction"}, {"variant": "C1040A", "effect of a mutation on the interaction": "decreasing interaction"}, {"variant": "C1058A", "effect of a mutation on the interaction": "decreasing interaction"}, {"variant": "C1058S", "effect of a mutation on the interaction": "decreasing interaction"}]}, {"variants_of": "B3", "details": "with dpod2_yeast POL31, P46957", "values": [{"variant": "C1059A", "effect of a mutation on the interaction": "decreasing interaction"}, {"variant": "H1064A", "effect of a mutation on the interaction": "decreasing interaction"}, {"variant": "C1056A", "effect of a mutation on the interaction": "decreasing interaction"}, {"variant": "Q1057A", "effect of a mutation on the interaction": "decreasing interaction"}, {"variant": "C1074A", "effect of a mutation on the interaction": "decreasing interaction"}, {"variant": "E1047A", "effect of a mutation on the interaction": "decreasing interaction"}, {"variant": "R1058A", "effect of a mutation on the interaction": "decreasing interaction"}, {"variant": "C1069A", "effect of a mutation on the interaction": "decreasing interaction"}]}]}
